From PMC6222600, “Application of Neurokinin-1 Receptor in Targeted Strategies for Glioma Treatment. Part I: Synthesis and Evaluation of Substance P Fragments Labeled with ^99mTc and ^177Lu as Potential Receptor Radiopharmaceuticals” (Molecules : A Journal of Synthetic Chemistry and Natural …, 2018) come the findings set out here.

Where two headings read alike, the source gives them in different places. Where a SMILES comes first, the peptide text is derived from it. Where no end group is shown, it is not given here. [ ]: non-standard residue; d: D form. The star is where a group is joined. DOTA = O=C(O)CN1CCN(CC(=O)O)CCN(CC(=O)*)CCN(CC(=O)O)CC1; Met(O2) = CS(=O)(=O)CC[C@H](N)C(=O)O; NS3/CN = chelator carrying 99mTc; 2Thi = N[C@@H](Cc1cccs1)C(=O)O

Series [1] in a line: Lipophilicity (logP), partition in n-octanol/PBS (pH 7.4). The class given is physicochemical. The procedure: The partition coefficient was measured for each compound in a biphasic system of n-octanol/PBS (pH 7.4). The biphasic mixture was shaken (vortex, 1 min) and then centrifuged (14,000 rpm, 5 min) before the organic (n-octanol) and aqueous (PBS, pH 7.4) phases were separated. The activity of each phase (corresponding to the content of radiobioconjugate) was determined by measuring γ-radiation, using a well-type NaI(Tl) detector. P was calculated as the ratio of activity in the organic versus aqueous phases (as an average value from at least three independent measurements). Immediately after the γ-radiation measurements, the aqueous phase was analyzed by HPLC (system 2) to determine whether the tested radiobioconjugate existed in the liquid phase in an unchanged form.

For series [2], the target named is T1, NK-1 receptors expressed on glioblastoma cells (U373 MG) (Homo sapiens, UniProt P25103).
T1 construct: host or cells: U373 MG (Uppsala) human glioblastoma astrocytoma cells
The series can be described thus: Saturation binding studies on U373 MG cells. The settings on record: 37 °C, 1.5 h, Scatchard analysis, mean ± SD of three experiments. The procedure: To determine the affinity of selected radiobioconjugates: […] One day before the experiment, 8 × 10^5 cells/well were seeded in six-well plates. To determine total binding, different concentrations of peptides (15.3 pM to 100 nM) were added to the cells and incubated at 37 °C for 1.5 h. Cellular uptake was stopped by aspirating the reaction supernatant, followed by washing twice with 1 mL of cold PBS. Finally, the cells were lysed using 1 M NaOH to detach them from the well plates. To determine nonspecific binding, the cells were incubated with 1000-fold excess of unlabelled peptides. The radioactivities of collected samples with cell pellets and supernatants were measured using Perkin Elmer automatic γ-counter. The specific binding was obtained by subtracting nonspecific binding from total binding. For estimating the receptor density (Bmax) and the dissociation constant (Kd) of the receptor for the studied radiobioconjugates, the Scatchard analysis method was used. Results are means ±SD of three individual experiments.

The format of series [3] is in vitro ADME, human. The protocol: Stability tests of 2a–e compounds in CSF and HS were performed similarly to the previous one. The solution (0.1 mL) of isolated 2a–e radiobioconjugate in 0.1 M PBS buffer (pH 7.4), was added to 0.9 mL of CSF or HS and incubated at 37 °C. After specific time intervals (1, 2, 4 and 24 h), a small sample (0.1–0.2 mL) of the mixture was taken, mixed with ethanol (0.3–0.5 mL) and shaken vigorously to precipitate protein components as well as part of the tested radiobioconjugate bound to protein components. The sample was then centrifuged (14,000 rpm, 5 min) and the supernatant separated. The radioactivities of both supernatant and precipitate were measured using the well-type NaI(Tl) detector (Institute of Nuclear Chemistry and Technology, Warsaw, Poland). […]

Series [4] concerns the target [177Lu]DOTA-[Thi8,Met(O2)11]Substance P(5-11) 5-11 (Homo sapiens, UniProt P20366, 177Lu-DOTA, Thi8, Met(O2)11). The series can be described thus: radioligand binding.
Series [5] concerns the target [177Lu]DOTA-[Thi8,Met(O2)11]Substance P(1-11) 1-11 (Homo sapiens, UniProt P20366, 177Lu-DOTA, Thi8, Met(O2)11). In words: radioligand binding.
Series [6] concerns the target [177Lu]DOTA-Substance P(4-11) 4-11 (Homo sapiens, UniProt P20366, 177Lu-DOTA). In words: radioligand binding.

`CC(C)C[C@H](NC(=O)CNC(=O)[C@H](Cc1cccs1)NC(=O)[C@H](Cc1ccccc1)NC(=O)[C@H](CCC(N)=O)NC(=O)[C@H](CCC(N)=O)NC(=O)CN1CCN(CC(=O)O)CCN(CC(=O)O)CCN(CC(=O)O)CC1)C(=O)N[C@@H](CCS(C)(=O)=O)C(N)=O` [2e, [^177Lu]DOTA-[Thi^8,Met(O2)^11]SP(5–11), metal not drawn] ({DOTA}-QQF[2Thi]GL[Met(O2)]-NH2) registered a logP in series [1] (pH 7.4) of -3.94 ± 0.01. The same molecule gave a Kd in series [2] of 48.7 ± 5.1 nM. In series [3], the “Enzymatic biomolecule biodegradation in human serum (ITLC)” value (from here on “Enzymatic biomolecule biodegradation”) is listed as “virtually all of the radiobiomolecule that was deposited onto the strip was degraded enzymatically”.

For the molecule `[C-]#[N+]CCCC(=O)N[C@@H](CCCNC(=N)N)C(=O)N1CCC[C@H]1C(=O)N[C@@H](CCCCN)C(=O)N1CCC[C@H]1C(=O)N[C@@H](CCC(N)=O)C(=O)N[C@@H](CCC(N)=O)C(=O)N[C@@H](Cc1ccccc1)C(=O)N[C@@H](Cc1ccccc1)C(=O)NCC(=O)N[C@@H](CC(C)C)C(=O)N[C@@H](CCSC)C(N)=O` [1a, [^99mTc]NS3/CN-SP(1–11), metal not drawn], the log partition coefficient (logP) in series [1] (n-octanol/PBS pH 7.4, [99mTc]NS3/CN-SP radiobioconjugates, read-out: logP) stood at 0.26 ± 0.05.

Regarding “[^99mTc]NS3/CN-SP(5–11) ({NS3/CN}-QQFFGLM; ends and bridges not checked; also: 99mTc complex of NS3/CN chelate; UniProt P20366 62-68, looked up, fragment) [1d, SP(5–11) labelled with technetium-99m via NS3/CN-BFCA]”, in series [1] (pH 7.4), the logP was 1.14 ± 0.01.

“[^99mTc]NS3/CN-SP(4–11) ({NS3/CN}-PQQFFGLM; ends and bridges not checked; also: 99mTc complex of NS3/CN chelate; UniProt P20366 61-68, looked up, fragment) [1c, SP(4–11) labelled with technetium-99m via NS3/CN-BFCA]” came in with a logP in series [1] (pH 7.4) of 0.09 ± 0.02.

In the case of `CC(C)C[C@H](NC(=O)CNC(=O)[C@H](Cc1cccs1)NC(=O)[C@H](Cc1ccccc1)NC(=O)[C@H](CCC(N)=O)NC(=O)[C@H](CCC(N)=O)NC(=O)[C@@H]1CCCN1C(=O)[C@H](CCCCN)NC(=O)[C@@H]1CCCN1C(=O)[C@H](CCCNC(=N)N)NC(=O)CN1CCN(CC(=O)O)CCN(CC(=O)O)CCN(CC(=O)O)CC1)C(=O)N[C@@H](CCS(C)(=O)=O)C(N)=O` [2b, [^177Lu]DOTA-[Thi^8,Met(O2)^11]SP(1–11), metal not drawn], the logP in series [1] (pH 7.4) is -5.28 ± 0.02. In series [2], this molecule returned a Kd of 11.1 ± 2.7 nM. The “Enzymatic biomolecule biodegradation” value in series [3] was “only partial”.

As to `CSCC[C@H](NC(=O)[C@H](CC(C)C)NC(=O)CNC(=O)[C@H](Cc1ccccc1)NC(=O)[C@H](Cc1ccccc1)NC(=O)[C@H](CCC(N)=O)NC(=O)[C@H](CCC(N)=O)NC(=O)[C@@H]1CCCN1C(=O)[C@H](CCCCN)NC(=O)[C@@H]1CCCN1C(=O)[C@H](CCCNC(=N)N)NC(=O)CN1CCN(CC(=O)O)CCN(CC(=O)O)CCN(CC(=O)O)CC1)C(N)=O` [2a, [^177Lu]DOTA-SP(1–11), metal not drawn], in series [1] (pH 7.4), the logP is -5.12 ± 0.06. The “Enzymatic biomolecule biodegradation” value in series [3] is given as “only partial”.

The molecule “[^99mTc]NS3/CN-[Thi^8,Met(O2)^11]SP(5–11) [1e]” came in with a logP in series [1] (pH 7.4) of 0.64 ± 0.02.

In turn, `CSCC[C@H](NC(=O)[C@H](CC(C)C)NC(=O)CNC(=O)[C@H](Cc1ccccc1)NC(=O)[C@H](Cc1ccccc1)NC(=O)[C@H](CCC(N)=O)NC(=O)[C@H](CCC(N)=O)NC(=O)[C@@H]1CCCN1C(=O)CN1CCN(CC(=O)O)CCN(CC(=O)O)CCN(CC(=O)O)CC1)C(N)=O` [2c, [^177Lu]DOTA-SP(4–11), metal not drawn] displayed a logP in series [1] (pH 7.4) of -2.93 ± 0.01. Besides, the Kd in series [2] turned out to be 13.3 ± 1.6 nM. The “Enzymatic biomolecule biodegradation” value in series [3] is listed as “only partial”.

As to `CSCC[C@H](NC(=O)[C@H](CC(C)C)NC(=O)CNC(=O)[C@H](Cc1ccccc1)NC(=O)[C@H](Cc1ccccc1)NC(=O)[C@H](CCC(N)=O)NC(=O)[C@H](CCC(N)=O)NC(=O)CN1CCN(CC(=O)O)CCN(CC(=O)O)CCN(CC(=O)O)CC1)C(N)=O` [2d, [^177Lu]DOTA-SP(5–11), metal not drawn] ({DOTA}-QQFFGLM-NH2), the logP in series [1] (pH 7.4) was -2.68 ± 0.01. Moreover, in series [3], the “Enzymatic biomolecule biodegradation” value was “virtually all of the radiobiomolecule that was deposited onto the strip was degraded enzymatically”.

B1: NK-1 receptor (protein)
chain: MDNVLPVDSDLSPNISTNTSEPNQFVQPAWQIVLWAAAYTVIVVTSVVGNVVVMWIILAHKRMRTVTNYFLVNLAFAEASMAAFNTVVNFTYAVHNEWYYGLFYCKFHNFFPIAAVFASIYSMTAVAFDRYMAIIHPLQPRLSATATKVVICVIWVLALLLAFPQGYYSTTETMPSRVVCMIEWPEHPNKIYEKVYHICVTVLIYFLPLLVIGYAYTVVGITLWASEIPGDSSDRYHEQVSAKRKVVKMMIVVVCTFAICWLPFHIFFLLPYINPDLYLKKFIQQVYLAIMWLAMSSTMYNPIIYCCLNDRFRLGFKHAFRCCPFISAGDYEGLEMKSTRYLQTQGSVYKVSRLETTISTVVGAHEEEPEDGPKATPSSLDLTSNCSSRSDSKTMTESFSFSSNVLS
As for B1, the Kd in series [4] worked out at 48.7 nM; in series [5], 11.1 nM; in series [6] it was 13.3 nM.

By logP is commonly meant a log measure of how a compound divides between an organic and an aqueous phase. In general, Kd refers to the constant that tells how readily two partners part at equilibrium. A low value points to tighter binding.
